Results on five molecules are retold here after article PMC5696595, “Therapeutic Application of Phage Capsule Depolymerases against K1, K5, and K30 Capsulated E. coli in Mice” (Frontiers in Microbiology, 2017).

In general, stoichiometry N refers to a count of units in the complex or per binding partner.

Common to all, as to experiment: SEC; analytical size exclusion on Superose 6 10/300 GL, AKTA FPLC, 4°C, 25 mM sodium phosphate, 150 mM NaCl, pH 7.5, 0.4 ml/min; molecular weights estimated with high molecular weight calibration kit; 200 μg to 1 mg protein loaded
In series [1] the target is K1F depolymerase (coliphage K1F).
The target in series [2] is K1H depolymerase (coliphage K1H).
The target in series [3] is K5 depolymerase (coliphage K1-5).
Series [4] deals with the molecule itself.

As to K1F depolymerase (enzyme), the stoichiometry N in series [1] was 3.

Consider K1H depolymerase (enzyme), for which the stoichiometry N in series [2] was 3.

Regarding K5 depolymerase (enzyme), the stoichiometry N in series [3] is 3.

B1: K30 gp42 (natural protein)
chain: MLDKLNQPKGSTIGVLKDGRTTQEAIDELTNDVTGSITTTRYASSASQALFPKLIDKMTAYRHGVSGFQDKFRIYGYGSSVGNGATIGGNSSPNTPVAKFFEHFQRTVNKAGIYPFEYSNKSVDGSNINDFLNREWPATVATGVFPDLAVFAYGMNDFPSAQYNAGMTFGANGFKQRLRNAIQKVRDAGGDVVLLTTPHPNIEEYSWELPSSIDMVWPQFAAKPVAGDVLIPPVSQSNVSFDFMGKRITQGVRFLRGNDAMREVAVEMGCVLIDVEKYWFEAVGKYGNVLLFDRVPAMQTVHPNLLGHQQSYWRAIEEFFNNVDSSGWIAPDAKLNQTLDVGGNALNPAKMEADVDLQANGIRQRAFVRRDKSGRVMEELTQDSRVKRTSYTVSDPTVSAPGYSLTWDEWFTRTKGLFTSGETLGIPVNNRTEGRLLVTAWISGQTGWTQLEDYLVSNREGVVLVSKIGSLDNTPPAGGTGTNGQRLFTVSTSANNVVVNILSDNATVKFKLDTFGA
On to B1, for which, in series [4], the “stoichiometry N” value is 3.

B2: K30 gp41 (enzyme)
chain: MDQDIKTVIQYPVGATEFDIPFDYLSRKFVRVSLVTGDNRRLLSNITEYRYVSKTRVKLLVETAGFDRVEIRRFTSASERIVDFSDGSVLRAADLNVSQIQSAHIAEEARDAALMAMPQDDVGNLDARNRRIVRLAPGIDSTDAINKNQLDTTLGEAGGILSQVKDTQKDIQNYIQKFGDDTAMVRGVNWVYNGGSAIGGETSFIIDKSAPVFAVPYIEVNGSRQFRDWQYEYDPATKRVTLVKPLEAGDFVVCLTTENKLPLEDLLASTGGADSIGKAGGGTVQDGLDATIHGTDVHRDTVTPGKLDTLLVYNGTNAGRDLRGHEFVMPHGTFSATRILRTRGISAAESKYTGFTWRGQGSSFTKLVHPATGGQGDIAFMDYLKDVTMSGFMMDNTALGQGTSNQDTRNGQFWIRHSVDSYFDDLRFAGADALTFCLDHCKNIYSTNLKVDYQLRYPTGTGKSPLIVGDYSEQCMFIGGYVKTVSPDGTIKYAGDLADNDQADDTKWAFINLYGLTFEQKPNSNACMWQEGEGAPSNAHFIGMNYINNGVGHGVSEKAVGTDIGSTFRQAQVRAVWNRAEYISIGSHFINNDAKYPAGTGGAGTAAAGGVHNDNAKFTSLVGDYFRGNFADYTDYTGASGVNPENSTHITNAKLTSIIRTSSSSTSQHLAIVNCQLTSAGRISGGGNGRLHVSVVASHCVGPLGQFGHGQSETYLDVINSTFTAAGSTEAMITQSGVGNISFANSTFRDYIRVVDGSHTRVTFRNCTFYTCTFTEDDRKARYVNCRFISCTDAPDSFGLNFAADSLDRPSSLRVNVTLTAGGSYTFPAWVLQGRGAYFINVGGNGANLPACAGIIGKSSATGSGVWTPQWESTPSSIVVSWPSNGYITVTATTAGNYTIGVH
In the case of B2, the “stoichiometry N” value in series [4] was 3.
